From the supplement of paper PMC6379048

Experiments:
Assay in all cases: Kd (EC50 corrected by depletion factor)
MCM4 = biological target: T1, MCM4 (UniProt P33991)
T1 sequence: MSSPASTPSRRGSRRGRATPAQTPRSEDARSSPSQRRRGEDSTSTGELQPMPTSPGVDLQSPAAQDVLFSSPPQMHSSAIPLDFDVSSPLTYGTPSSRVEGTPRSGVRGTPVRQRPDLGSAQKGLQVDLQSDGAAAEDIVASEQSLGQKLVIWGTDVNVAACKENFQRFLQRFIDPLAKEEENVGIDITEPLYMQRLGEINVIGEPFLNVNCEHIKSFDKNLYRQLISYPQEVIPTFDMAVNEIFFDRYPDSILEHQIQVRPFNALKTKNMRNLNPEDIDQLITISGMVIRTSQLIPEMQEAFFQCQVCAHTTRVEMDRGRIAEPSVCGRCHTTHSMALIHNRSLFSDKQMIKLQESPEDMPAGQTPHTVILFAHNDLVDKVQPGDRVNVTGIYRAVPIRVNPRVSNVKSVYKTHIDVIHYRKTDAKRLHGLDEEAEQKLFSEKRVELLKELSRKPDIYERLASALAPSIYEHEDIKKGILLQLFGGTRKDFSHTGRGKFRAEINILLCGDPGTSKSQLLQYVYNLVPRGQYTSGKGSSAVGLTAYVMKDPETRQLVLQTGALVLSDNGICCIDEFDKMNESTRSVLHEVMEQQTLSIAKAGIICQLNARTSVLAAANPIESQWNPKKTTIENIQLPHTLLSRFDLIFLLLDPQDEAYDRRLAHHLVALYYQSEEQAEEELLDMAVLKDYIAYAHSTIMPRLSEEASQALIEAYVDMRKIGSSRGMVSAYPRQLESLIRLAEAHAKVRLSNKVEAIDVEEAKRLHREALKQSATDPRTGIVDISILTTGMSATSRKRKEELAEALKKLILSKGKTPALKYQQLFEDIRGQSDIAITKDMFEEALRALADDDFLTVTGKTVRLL
Outline: (§1)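 HEK293-FT lysate (2.5 mg protein/well) was treated with free RNA oligos (0 nM to 30 μM) for 1 h at 4°C, then with the same oligos on NHS-Sepharose beads for 30 min at 4°C. Bound proteins were quantified by label-free LC-MS/MS relative to the control. EC50 came from a four-parameter log-logistic fit, and Kd is EC50 times a protein-dependent depletion factor.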

RPS19 = RPS19 (UniProt P39019)
Outline: as §1

DDX21 = biological target: T2, DDX21 (UniProt Q9NR30)
T2 sequence: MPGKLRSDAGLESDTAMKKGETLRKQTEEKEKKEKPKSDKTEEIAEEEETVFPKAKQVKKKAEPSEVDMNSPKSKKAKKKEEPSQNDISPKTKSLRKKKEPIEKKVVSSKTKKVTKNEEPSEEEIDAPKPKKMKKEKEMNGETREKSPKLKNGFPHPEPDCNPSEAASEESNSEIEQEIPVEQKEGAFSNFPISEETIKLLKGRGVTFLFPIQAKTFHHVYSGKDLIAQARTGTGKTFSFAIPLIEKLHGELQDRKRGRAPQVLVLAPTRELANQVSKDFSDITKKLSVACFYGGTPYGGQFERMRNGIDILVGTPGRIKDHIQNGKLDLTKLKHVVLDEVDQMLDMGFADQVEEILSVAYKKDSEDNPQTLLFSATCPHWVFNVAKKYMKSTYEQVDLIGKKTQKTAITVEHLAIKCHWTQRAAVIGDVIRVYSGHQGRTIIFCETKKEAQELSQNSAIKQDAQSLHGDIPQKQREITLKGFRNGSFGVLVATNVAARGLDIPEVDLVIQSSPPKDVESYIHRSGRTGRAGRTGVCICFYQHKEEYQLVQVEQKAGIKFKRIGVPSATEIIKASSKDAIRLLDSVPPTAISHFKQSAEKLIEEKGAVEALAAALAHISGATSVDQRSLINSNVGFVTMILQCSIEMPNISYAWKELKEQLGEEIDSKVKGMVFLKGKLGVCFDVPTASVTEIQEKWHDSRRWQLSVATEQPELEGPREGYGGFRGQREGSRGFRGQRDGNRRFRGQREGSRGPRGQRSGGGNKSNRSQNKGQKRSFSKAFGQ
Outline: as §1

ZNFX1 = ZNFX1 (UniProt Q9P2E3)
Outline: as §1

ZFP36L1 = biological target: T3, ZFP36L1 (UniProt Q07352)
T3 sequence: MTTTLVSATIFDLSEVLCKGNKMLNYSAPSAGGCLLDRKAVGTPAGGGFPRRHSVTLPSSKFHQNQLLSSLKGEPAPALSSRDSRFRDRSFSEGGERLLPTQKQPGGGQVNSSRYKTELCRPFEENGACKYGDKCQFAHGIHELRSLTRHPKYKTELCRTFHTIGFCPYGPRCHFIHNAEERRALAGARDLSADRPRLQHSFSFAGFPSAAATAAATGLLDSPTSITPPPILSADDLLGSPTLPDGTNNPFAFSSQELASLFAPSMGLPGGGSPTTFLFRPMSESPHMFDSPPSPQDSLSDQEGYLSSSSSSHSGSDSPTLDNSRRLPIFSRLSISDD
Outline: as §1

ZCCHC11 = ZCCHC11 (UniProt Q5TAX3)
Outline: as §1

Chain of ZNFX1 (Q9P2E3 whole entry): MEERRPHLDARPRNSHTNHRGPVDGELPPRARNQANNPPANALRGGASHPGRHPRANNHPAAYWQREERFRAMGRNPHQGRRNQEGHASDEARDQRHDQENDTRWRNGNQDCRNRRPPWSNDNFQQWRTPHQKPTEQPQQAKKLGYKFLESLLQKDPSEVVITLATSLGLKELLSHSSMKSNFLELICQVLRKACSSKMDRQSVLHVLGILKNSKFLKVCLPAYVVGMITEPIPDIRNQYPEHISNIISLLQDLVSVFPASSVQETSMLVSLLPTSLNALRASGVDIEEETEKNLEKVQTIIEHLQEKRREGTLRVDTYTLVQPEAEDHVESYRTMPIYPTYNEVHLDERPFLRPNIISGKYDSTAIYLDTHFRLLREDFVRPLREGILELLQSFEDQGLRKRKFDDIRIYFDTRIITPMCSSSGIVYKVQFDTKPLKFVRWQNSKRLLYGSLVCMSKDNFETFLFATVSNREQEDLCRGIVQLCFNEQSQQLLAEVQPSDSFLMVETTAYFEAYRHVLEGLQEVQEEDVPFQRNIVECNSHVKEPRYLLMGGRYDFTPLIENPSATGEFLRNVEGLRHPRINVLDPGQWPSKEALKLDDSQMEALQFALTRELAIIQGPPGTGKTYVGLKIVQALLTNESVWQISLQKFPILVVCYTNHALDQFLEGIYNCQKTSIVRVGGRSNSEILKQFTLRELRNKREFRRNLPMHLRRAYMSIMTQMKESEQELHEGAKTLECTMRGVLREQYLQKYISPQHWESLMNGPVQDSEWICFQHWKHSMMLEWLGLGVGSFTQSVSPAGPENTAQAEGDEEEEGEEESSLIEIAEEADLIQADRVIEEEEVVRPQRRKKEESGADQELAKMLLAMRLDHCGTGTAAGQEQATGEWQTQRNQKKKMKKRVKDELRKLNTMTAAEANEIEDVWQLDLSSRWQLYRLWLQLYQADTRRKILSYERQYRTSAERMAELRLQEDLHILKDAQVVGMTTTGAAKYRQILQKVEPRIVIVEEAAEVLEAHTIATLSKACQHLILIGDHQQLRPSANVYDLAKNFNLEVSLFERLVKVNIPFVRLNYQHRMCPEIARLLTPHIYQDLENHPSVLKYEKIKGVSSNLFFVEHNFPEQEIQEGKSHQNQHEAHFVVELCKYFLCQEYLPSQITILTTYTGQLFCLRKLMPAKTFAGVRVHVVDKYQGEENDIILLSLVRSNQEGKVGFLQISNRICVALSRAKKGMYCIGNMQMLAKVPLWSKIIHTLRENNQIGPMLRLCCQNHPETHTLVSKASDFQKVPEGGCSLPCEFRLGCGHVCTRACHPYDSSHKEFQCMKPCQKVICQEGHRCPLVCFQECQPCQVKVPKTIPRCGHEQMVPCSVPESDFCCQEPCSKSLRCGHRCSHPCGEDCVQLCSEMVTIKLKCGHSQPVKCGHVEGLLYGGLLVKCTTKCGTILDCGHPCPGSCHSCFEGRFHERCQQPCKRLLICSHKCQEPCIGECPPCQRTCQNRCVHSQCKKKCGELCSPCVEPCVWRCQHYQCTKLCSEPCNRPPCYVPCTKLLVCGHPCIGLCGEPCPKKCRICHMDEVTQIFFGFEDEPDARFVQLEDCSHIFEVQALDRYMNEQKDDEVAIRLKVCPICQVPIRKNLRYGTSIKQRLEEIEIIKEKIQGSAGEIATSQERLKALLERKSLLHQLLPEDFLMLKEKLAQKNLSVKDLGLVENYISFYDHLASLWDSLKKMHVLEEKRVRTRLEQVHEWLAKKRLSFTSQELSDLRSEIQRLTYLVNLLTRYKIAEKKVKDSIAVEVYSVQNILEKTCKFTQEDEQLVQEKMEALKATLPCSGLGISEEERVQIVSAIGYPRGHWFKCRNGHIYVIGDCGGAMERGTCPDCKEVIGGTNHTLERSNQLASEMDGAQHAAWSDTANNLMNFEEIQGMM
Chain of ZCCHC11 (Q5TAX3 whole entry): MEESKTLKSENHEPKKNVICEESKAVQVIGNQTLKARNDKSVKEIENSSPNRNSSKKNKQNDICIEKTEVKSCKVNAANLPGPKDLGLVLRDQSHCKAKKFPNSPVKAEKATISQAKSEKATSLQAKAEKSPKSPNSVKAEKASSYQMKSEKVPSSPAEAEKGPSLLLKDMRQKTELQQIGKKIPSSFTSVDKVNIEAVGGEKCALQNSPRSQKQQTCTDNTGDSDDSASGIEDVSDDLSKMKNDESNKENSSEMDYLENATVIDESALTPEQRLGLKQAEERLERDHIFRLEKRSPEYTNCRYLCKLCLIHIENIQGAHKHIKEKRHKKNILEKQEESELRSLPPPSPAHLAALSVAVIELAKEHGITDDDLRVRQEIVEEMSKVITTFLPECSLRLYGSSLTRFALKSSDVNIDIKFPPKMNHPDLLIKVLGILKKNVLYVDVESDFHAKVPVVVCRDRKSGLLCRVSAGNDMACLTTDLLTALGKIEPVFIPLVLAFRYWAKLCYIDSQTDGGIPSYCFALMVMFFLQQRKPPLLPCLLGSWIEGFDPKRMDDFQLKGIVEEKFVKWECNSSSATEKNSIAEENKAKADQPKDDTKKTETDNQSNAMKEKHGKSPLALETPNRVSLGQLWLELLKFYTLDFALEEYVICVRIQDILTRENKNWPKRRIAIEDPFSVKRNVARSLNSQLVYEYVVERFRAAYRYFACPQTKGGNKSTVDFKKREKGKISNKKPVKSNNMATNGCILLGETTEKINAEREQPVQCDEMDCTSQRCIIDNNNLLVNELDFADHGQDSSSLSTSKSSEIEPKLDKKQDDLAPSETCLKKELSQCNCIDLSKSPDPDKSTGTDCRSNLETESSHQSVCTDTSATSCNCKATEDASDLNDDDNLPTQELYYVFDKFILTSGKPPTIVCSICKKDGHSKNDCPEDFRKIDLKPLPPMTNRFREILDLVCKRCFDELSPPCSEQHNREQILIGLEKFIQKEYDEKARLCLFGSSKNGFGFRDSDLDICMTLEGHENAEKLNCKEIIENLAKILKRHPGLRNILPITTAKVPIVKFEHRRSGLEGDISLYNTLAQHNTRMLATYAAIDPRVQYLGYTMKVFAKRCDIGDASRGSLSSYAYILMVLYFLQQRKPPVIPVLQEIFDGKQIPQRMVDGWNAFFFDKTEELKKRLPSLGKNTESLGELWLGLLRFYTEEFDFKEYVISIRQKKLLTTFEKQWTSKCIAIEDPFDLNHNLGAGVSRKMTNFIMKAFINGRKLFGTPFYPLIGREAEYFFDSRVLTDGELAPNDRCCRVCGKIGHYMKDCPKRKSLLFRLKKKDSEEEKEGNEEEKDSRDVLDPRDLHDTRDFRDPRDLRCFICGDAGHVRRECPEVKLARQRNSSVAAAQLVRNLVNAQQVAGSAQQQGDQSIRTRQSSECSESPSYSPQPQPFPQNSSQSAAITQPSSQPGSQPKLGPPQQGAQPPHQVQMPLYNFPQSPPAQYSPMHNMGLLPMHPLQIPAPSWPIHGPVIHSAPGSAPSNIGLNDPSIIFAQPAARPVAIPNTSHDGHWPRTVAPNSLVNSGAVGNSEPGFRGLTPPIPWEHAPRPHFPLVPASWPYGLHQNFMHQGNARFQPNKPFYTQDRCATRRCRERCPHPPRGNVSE

AAUAAA
Kd (MCM4): 25.8 nM

CUGUCCU
Kd (RPS19): 69.9 nM | Kd (DDX21): 44.3 nM

UAUUUAU
Kd (ZNFX1): 374 nM | Kd (ZFP36L1): 24.4 nM | Kd (ZCCHC11): 91.8 nM
